The target of assay [1] is T1, biotinylated ADDLs (bADDLs), oligomers prepared from N-terminal biotinylated amyloid β1-42 (N-terminal biotin).
T1 construct: also called high molecular weight 10% bADDL
As to the kind of experiment: titration ELISA on streptavidin-captured 10% biotinylated ADDL. A general note: In an ELISA, binding on a coated surface is turned into a signal by an enzyme label.

Assay [2] concerns the target T1, biotinylated ADDLs (bADDLs), oligomers …. Put plainly: BIACORE, bADDL as antigen, IgG1 #1.
Assay [3] shares this target. Put plainly: BIACORE, bADDL as antigen, Fab. On the technique in general: Surface plasmon resonance follows binding to a sensor surface in real time, without labels.
Assay [4] has the same target. Put plainly: BIACORE, bADDL as antigen, IgG1 #2.
The target of assay [5] is ADDL fibril preparation (Aβ1-42 fibrils made in 10 mM hydrochloric acid). Put plainly: solution equilibrium titration; free IgG by ELISA; GraFit.
For assay [6], the target named is T2, SEC Peak 1 fraction of ADDLs (large aggregates, >50 kDa).
T2 construct: Size exclusion fraction of synthetic ADDLs; monomer, trimer, tetramer and 12-24 mers on SDS-PAGE
As to the kind of experiment: sandwich ELISA with polyclonal M90 as capture antibody; signal on SEC Peak 1 divided by signal on SEC Peak 2 of ADDLs.

For assay [7], the target named is T3, Aβ-derived diffusible ligands (synthetic ADDLs), soluble oligomers of amyloid β1-42.
T3 construct: number of copies varies (trimer, tetramer, 12-24 mer)
As to the kind of experiment: solution equilibrium titration; free IgG by ELISA; GraFit.

The target of assay [8] is T4, higher molecular weight oligomers of the ADDL preparation.
T4 construct: also called higher molecular weight material (12-24 mer)
As to the kind of experiment: western immunoblot of ADDLs after SDS-PAGE (column DENATURED SPECIES IDENTIFIED: HMW ADDLs). For orientation: A western blot detects proteins with antibodies after separation by electrophoresis.

The values that follow come from US20110159013A1 (MERCK, published 2011).

B1: humanized 26D6, CDR grafted, IgG1/kappa (antibody)
heavy: not shown
light: DVVMTQSPLSLPVTPGEPASISCRASQSIVHSNGNTYLEWYLQKPGQSPQLLIYRVSNRFSGVPDRFSGSGSGTDFTLKISRVEAEDVGVYYCFQVTHVPLTFGQGTKLEIKRTVAAPSVFIFPPSDEQLKSGTASVVCLLNNFYPREAKVQWKVDNALQSGNSQESVTEQDSKDSTYSLSSTLTLSKADYEKHKVYACEVTHQGLSSPVTKSFNRGEC
With B1, the binding result in assay [1] is recorded as “binds”.

B2: humanized 26D6, CDR grafted, IgG2m4/kappa (antibody)
heavy: QVTLKESGPTLVKPTQTLTLTCTFSGFSLSTSGMGVSWIRQPPGKALEWLAHIYWDDDKQYNPSLKSRLTITKDTSKNQVVLTMTNMDPVDTATYYCARRASSSRYDDQFDYWGQGTLVPVSSASTKGPSVFPLAPCSRSTSESTAALGCLVKDYFPEPVTVSWNSGALTSGVHTFPAVLQSSGLYSLSSVVTVTSSNFGTQTYTCNVDHKPSNTKVDKTVERKCCVECPPCPAPPVAGPSVFLFPPKPKDTLMISRTPEVTCVVVDVSQEDPEVQFNWYVDGVEVHNAKTKPREEQFNSTFRVVSVLTVLHQDWLNGKEYKCKVSNKGLPSSIEKTISKTKGQPREPQVYTLPPSREEMTKNQVSLTCLVKGFYPSDIAVEWESNGQPENNYKTTPPMLDSDGSFFLYSKLTVDKSRWQQGNVFSCSVMHEALHNHYTQKSLSLSPGK
light: DVVMTQSPLSLPVTPGEPASISCRASQSIVHSNGNTYLEWYLQKPGQSPQLLIYRVSNRFSGVPDRFSGSGSGTDFTLKISRVEAEDVGVYYCFQVTHVPLTFGQGTKLEIKRTVAAPSVFIFPPSDEQLKSGTASVVCLLNNFYPREAKVQWKVDNALQSGNSQESVTEQDSKDSTYSLSSTLTLSKADYEKHKVYACEVTHQGLSSPVTKSFNRGEC
For B2, the binding result in assay [1] was “binds”.

B3: humanized 2H4, CDR grafted, IgG1/kappa (antibody, V domains shown)
VH: EVQLVESGGGLVQPGGSLRLSCAASGFTFSSFGMHWVRQAPGKGLEWVAYIRSGSSTIYYADTVKGRFTISRDNSKNTLYLQMNSLRAEDTAVYYCARGGNYYGSSRFAYWGQGTLVTVSS
VL: DIQMTQSPSSLSASVGDRVTITCKASQDINSYLSWFQQKPGKAPKTLIYRANRFVDGVPSRFSGSGSGTDYTLTISSLQPEDFATYFCLQYDEFPLTFGGGTKVEIKR
notes: also called 2H4 (humanized)
Take B3: the binding result in assay [1] is “binds”.

B4: affinity-matured humanized 20C2-1A, IgG1 (humanized A version) (antibody, V domains shown)
VH: QVTLKESGPALVKPTQTLTLTCTFSGFSLSTSGMGVGWIRQPPGKALEWLAHIWWDDDKSYNPSLKSRLTISKDTSKNQVVLTMTNMDPVDTATYYCARRQLGLRSIDAMDYWGQGTTVTVSS
VL: DVVMTQSPLSLPVTPGEPASISCRSSQSILHSNGNTYLEWYLQKPGQSPQLLIYKVSNRFSGVPDRFSGSGSGTDFTLKISRVEAEDVGVYYCFQASRVPLTFGQGTKLEIKR
notes: also called clone SJ-p2-60
Broadly, the Kd is the free concentration of one partner at which half of the binding sites on the other are occupied at equilibrium, for simple one-to-one binding. For the molecule B4, in assay [2], the Kd worked out at 0.075 nM.

B5: humanized 1F6, CDR grafted, IgG1/kappa (antibody, V domains shown)
VH: EVQLVESGGGLVQPGGSLRLSCAASGFTFSSFGMHWVRQAPGKGLEWVAYISSVSSTIYYADTVKGRFTISRDNSKNTLYLQMNSLRAEDTAVYYCARSGYGSSYGYGMDYWGQGTLVTVSS
VL: DVVMTQSPLSLPVTPGEPASISCRSSQSIVHSNGNTYLEWYLQKPGQSPQLLIYKVSNRFSGVPDRFSGSGSGTDFTLKISRVEAEDVGVYYCFQGSHVPLTFGQGTKLEIKR
notes: also called 1F6 (humanized)
As to B5, in assay [1], the binding result was “binds”.

B6: Fab fragment of affinity-matured humanized 20C2-18A (Fab, V domains shown)
VH: QVTLKESGPALVKPTQTLTLTCTFSGFSLSTSGMGVGWIRQPPGKALEWLAHIWWDDDKSYNPSLKSRLTISKDTSKNQVVLTMTNMDPVDTATYYCARRQLGLRSIDAMDYWGQGTTVTVSS
VL: DVVMTQSPLSLPVTPGEPASISCRSSQSILHSNGNTYLEWYLQKPGQSPQLLIYKVSNRFSGVPDRFSGSGSGTDFTLKISRVEAEDVGVYYCMQSSFVPLTFGQGTKLEIKR
The molecule B6 showed a Kd in assay [3] of 85 nM.

B7: humanized 3B3, CDR grafted, IgG1/kappa (antibody, V domains shown)
VH: EVQLVESGGGLVQPGGSLRLSCAASGFTFSSFGMHWVRQAPGKGLEWVAYISRGSSTIYYADTVKGRFTISRDNAKNSLYLQMNSLRAEDTAVYYCARGITTALDYWGQGTLVTVSS
VL: DVVMTQSPLSLPVTPGEPASISCRSSQSIVHSNGNTYLEWYLQKPGQSPQLLIYKASNRFSGVPDRFSGSGSGTDFTLKISRVEAEDVGVYYCFQGSHVPPTFGQGTKLEIKR
notes: also called 3B3 (humanized)
For B7, in assay [1], the binding result is reported as “binds”.

B8: humanized 20C2, veneered, HCVR VenA IgG1 with veneered 20C2 LCVR Kappa (antibody, V domains shown)
VH: QVTLKESGPGILKPSQTLSLTCTFSGFSLSTSGMGVGWFRQPPGKGLEWLAHIWWDDDKSYNPSLKSRLTISKDTSKNQVFLTITNMDPVDTATYYCARRQLGLRSIDAMDYWGQGTTVTVSS
VL: DVVMTQSPLSLPVSLGDPASISCRSSQSILHSNGNTYLEWYLQKPGQSPQLLIYKVSNRFSGVPDRFSGSGSGTDFTLKISRVEAEDLGVYYCFQGSLVPLTFGAGTKLELKR
notes: also called 20C2 VenA
As to B8, the binding result in assay [1] was “binds”.

B9: humanized 4E2, CDR grafted, IgG1/kappa (antibody, V domains shown)
VH: QVTLKESGPALVKPTQTLTLTCTFSGFSLSTSGMGVGWIRQPPGKALEWLAHIWWDDDKYYNPSLKSQLTISKDTSKNQVVLTMTNMDPVDTATYYCARRSINSVVPEDYFDYWGQGTTVTVSS
VL: DVVMTQSPLSLPVTPGEPASISCRSSQSIVHSNGNTYLEWYLQKPGQSPQLLIYKVSNRFSGVPDRFSGSGSGTDFTLKISRVEAEDVGVYYCFQGSHVPLTFGQGTKLEIKR
notes: also called 4E2 (humanized)
For B9, the binding result in assay [1] is “binds”.

B10: affinity-matured humanized 20C2-2A, IgG1 (humanized A version) (antibody, V domains shown)
VH: QVTLKESGPALVKPTQTLTLTCTFSGFSLSTSGMGVGWIRQPPGKALEWLAHIWWDDDKSYNPSLKSRLTISKDTSKNQVVLTMTNMDPVDTATYYCARRQLGLRSIDAMDYWGQGTTVTVSS
VL: DVVMTQSPLSLPVTPGEPASISCRSSQSILHSNGNTYLEWYLQKPGQSPQLLIYKVSNRFSGVPDRFSGSGSGTDFTLKISRVEAEDVGVYYCFQATRVPLTFGQGTKLEIKR
notes: also called clone SJ-p1-18
Regarding B10, the Kd in assay [2] came out at 0.015 nM; in assay [4], 0.0003 nM.

B11: murine anti-ADDL monoclonal antibody 5F10 (antibody, V domains shown)
VH: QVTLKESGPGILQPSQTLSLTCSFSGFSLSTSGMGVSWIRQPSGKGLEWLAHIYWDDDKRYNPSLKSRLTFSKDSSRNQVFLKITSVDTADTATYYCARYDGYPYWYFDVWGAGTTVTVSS
VL: VVLMTQTPLSLPVSLGDQASISCRSSQSLVHSNGNTYLHWYLQKPGQSPKLLIYKVSNRFSGVPDRFSGSGSGTDFTLKISRVEAEDLGVYFCFQSTHVPLTFGAGTKLELK
In assay [5], B11 returned a Kd of 28.9 nM. In addition, the “Peak 1/Peak 2 Ratio (ELISA)” value in assay [6] is 18.

B12: murine anti-ADDL monoclonal antibody 1F4 (antibody, mouse IgG1, V domains shown)
VH: DVQLVESGGGLVQPGGSRKLSCAASGFTFSSFGMHWVRQAPEKGLEWVAYISSVSSTIYYADTVKGRFTISRDNPKNTLFLQMTSLRSEDTAMYYCARSGYGSSYGYGMDYWGQGTLVTVSS
VL: DVLMTQTPLSLPVSLGDQASISCRSSQSIVHSNGNTYLEWYLQKPGQSPKLLIYKVSNRFSGVPDRFSGSGSGTDFTLKISRVEAEDLGVYYCFQGSHVPLTFGAGTKLELK
As for B12, the dissociation constant (Kd) is 9.24 nM in assay [7] and 12.5 nM in assay [5].

B13: murine anti-ADDL monoclonal antibody 3B3 (antibody, mouse IgG1, V domains shown)
VH: DVQLVESGGGLVQPGGSRKLSCAASGFTFSSFGMHWVRQAPEKGLEWVAYISRGSSTIYYADTVKGRFTISRDNPKNTLFLQMTSLRSEDTAMYYCARGITTALDYWGQGTSVTVSS
VL: DVLMTQTPLSLPVSLGDQASISCRSSQSIVHSNGNTYLEWYLQKPGQSPKLLIYKASNRFSGVPDRFSGSGSGTDFTLKISRVEAEDLGVYYCFQGSHVPPTFGGGTKLEIK
In assay [5], B13 came in with a Kd of 7.21 nM.

B14: murine anti-ADDL monoclonal antibody 4C2 (antibody, mouse IgG1, V domains shown)
VH: QVTLKESGPGILKPSQTLSLTCSFSGFSLSTSGMGVGWIRQPSGKGLEWLAHIWWDDDKYYNPSLKSQLTISKDTSRNQVFLKITSVDTADTATYYCARRSITTVVPEDYFAYWGQGTTLTVSS
VL: DVLMTQSPLSLPVSLGDQASISCRSSQSIVHSNGNTYLEWYLQKPGQSPKLLIYKVSNRFSGVPDRFSGSGSGTDFTLKISRVEAEDLGVYYCFQGSHVPLTFGAGTKLELK
In the case of B14, in assay [5], binding was put at a Kd of 19.2 nM. Moreover, the “Peak 1/Peak 2 Ratio (ELISA)” value in assay [6] stood at 18. The binding result in assay [8] is given as “binds”.

B15: murine anti-ADDL monoclonal antibody 2D6 (antibody, mouse IgG1, V domains shown)
VH: QVTLKESGPGILKPSQTLSLTCSFSGFSLSTSGMGVGWIRQPSGKGLEWLAHIWWDDDKYYNPSLKSQLTISKDTSRNQVFLKITSVDTADTATYYCARRSISTVIPEDYFDYWGQGTILTVSS
VL: DVLMTQTPLSLTVSLGDQASISCRSSQSIVHSNGNTYLEWYLQKPGQSPKLLIYKVSNRFSGVPDRFSGSGSGTDFTLKISRVEAEDLGVYYCFQGSHVPLTFGAGTKLELK
With B15, the Kd in assay [5] was found to be 14.4 nM. Further, the “Peak 1/Peak 2 Ratio (ELISA)” value in assay [6] turned out to be 19.
